Results reported in patent publication US20190185570A1 (IGM BIOSCIENCES, published 2019).

Columns and labels:
[1] = target: Fc fusion protein of Human CTLA4 (human) (UniProt P16410); assay: BLI (Fortebio), human CTLA4 Fc fusion immobilized by amine reactive chemistry
DR5 = DR5 (UniProt O14763 56-440, limits assumed); assay: cell-based or functional assay

Sequence of Fc fusion protein of Human CTLA4 (human) (P16410 36-161 limits assumed): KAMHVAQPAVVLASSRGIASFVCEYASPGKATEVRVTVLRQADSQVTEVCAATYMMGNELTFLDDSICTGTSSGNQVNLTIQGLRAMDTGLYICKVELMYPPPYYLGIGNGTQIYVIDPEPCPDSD

| Kd [1] [nM] | Molecule | cytotoxic effect, cell viability of COLO205 cells (Cell-Titer Glo), fold against the corresponding IgG (DR5) [fold] |
| --- | --- | --- |
| 2 | Anti CTLA4 IgG (BioLegend A3.B10.G1) (antibody) | – |
| – | anti-DR5 IgM (antibody, V domains shown) VH: EVQLVQSGGGVERPGGSLRLSCAASGFTFDDYGMSWVRQAPGKGLEWVSGINWNGGSTGYADSVKGRVTISRDNAKNSLYLQMNSLRAEDTAVYYCAKILGAGRGWYFDLWGKGTTVTVSS VL: SSELTQDPAVSVALGQTVRITCQGDSLRSYYASWYQQKPGQAPVLVIYGKNNRPSGIPDRFSGSSSGNTASLTITGAQAEDEADYYCNSRDSSGNHVVFGGGTKLTVLG | > 1000 |
